The values below come from PMC2993962, “Identification of a Novel Binding Partner of Phospholipase Cβ1: Translin-Associated Factor X” (PLoS ONE, 2010).

B1: His6-PLCβ1 (phospholipase Cβ1), full length enzyme (enzyme, rat, UniProt P10687 1-1216, looked up)
chain: MAGAQPGVHALQLKPVCVSDSLKKGTKFVKWDDDSTIVTPIILRTDPQGFFFYWTDQNKETELLDLSLVKDARCGKHAKAPKDPKLRELLDVGNIGHLEQRMITVVYGPDLVNISHLNLVAFQEEVAKEWTNEVFSLATNLLAQNMSRDAFLEKAYTKLKLQVTPEGRIPLKNIYRLFSADRKRVETALEACSLPSSRNDSIPQEDFTPDVYRVFLNNLCPRPEIDNIFSEFGAKSKPYLTVDQMMDFINLKQRDPRLNEILYPPLKQEQVQVLIEKYEPNSSLAKKGQMSVDGFMRYLSGEENGVVSPEKLDLNEDMSQPLSHYFINSSHNTYLTAGQLAGNSSVEMYRQVLLSGCRCVELDCWKGRTAEEEPVITHGFTMTTEISFKEVIEAIAECAFKTSPFPILLSFENHVDSPKQQAKMAEYCRLIFGDALLMEPLEKYPLESGVPLPSPMDLMYKILVKNKKKSHKSSEGSGKKKLSEQASNTYSDSSSVFEPSSPGAGEADTESDDDDDDDDCKKSSMDEGTAGSEAMATEEMSNLVNYIQPVKFESFETSKKRNKSFEMSSFVETKGLEQLTKSPVEFVEYNKMQLSRIYPKGTRVDSSNYMPQLFWNAGCQMVALNFQTVDLAMQINMGMYEYNGKSGYRLKPEFMRRPDKHFDPFTEGIVDGIVANTLSVKIISGQFLSDKKVGTYVEVDMFGLPVDTRRKAFKTKTSQGNAVNPVWEEEPIVFKKVVLPSLACLRIAAYEEGGKFIGHRILPVQAIRPGYHYICLRNERNQPLMLPAVFVYIEVKDYVPDTYADVIEALSNPIRYVNLMEQRAKQLAALTLEDEEEVKKEADPGETSSEAPSETRTTPAENGVNHTATLAPKPPSQAPHSQPAPGSVKAPAKTEDLIQSVLTEVEAQTIEELKQQKSFVKLQKKHYKEMKDLVKRHHKKTTELIKEHTTKYNEIQNDYLRRRAALEKSAKKDSKKKSEPSSPDHGSSAIEQDLAALDAEMTQKLIDLKDKQQQQLLNLRQEQYYSEKYQKREHIKLLIQKLTDVAEECQNNQLKKLKEICEKEKKELKKKMDKKRQEKITEAKSKDKSQMEEEKTEMIRSYIQEVVQYIKRLEEAQSKRQEKLVEKHKEIRQQILDEKPKLQMELEQEYQDKFKRLPLEILEFVQEAMKGKVSEDSNHGSAPPSLASDPAKVNLKSPSSEEVQGENAGREFDTPL
modifications: thiol-reactive probe CPM, ~1:1 probe:protein, in the titrations with TRAX (CPM-PLCβ1); unlabelled when added to CPM-Gαq
notes: phospholipase Cβ1, rat, full length enzyme; also called CPM-PLCβ1; His-tagged PLCβ1; source: Sf9 cells, purified
B2: His-tagged translin-associated factor X (TRAX) (natural protein, human, UniProt Q99598 1-290, looked up)
chain: MSNKEGSGGFRKRKHDNFPHNQRREGKDVNSSSPVMLAFKSFQQELDARHDKYERLVKLSRDITVESKRTIFLLHRITSAPDMEDILTESEIKLDGVRQKIFQVAQELSGEDMHQFHRAITTGLQEYVEAVSFQHFIKTRSLISMDEINKQLIFTTEDNGKENKTPSSDAQDKQFGTWRLRVTPVDYLLGVADLTGELMRMCINSVGNGDIDTPFEVSQFLRQVYDGFSFIGNTGPYEVSKKLYTLKQSLAKVENACYALKVRGSEIPKHMLADVFSVKTEMIDQEEGIS
notes: translin-associated factor X (TRAX), human cDNA from Open Biosystems cloned into pET32a; pET32a may also add thioredoxin and an S tag, depending on the cloning sites (surmise); source: Rosetta cells (pET32a), purified on a Ni-NTA column
B3: Gαq (natural protein, rat, UniProt P82471 1-359, looked up)
chain: MTLESIMACCLSEEAKEARRINDEIERQLRRDKRDARRELKLLLLGTGESGKSTFIKQMRIIHGSGYSDEDKRGFTKLVYQNIFTAMQAMVRAMDTLKIPYKYEHNKAHAQLVREVDVEKVSAFENPYVDAIKSLWNDPGIQECYDRRREYQLSDSTKYYLNDLDRVADPSYLPTQQDVLRVRVPTTGIIEYPFDLQSVIFRMVDVGGQRSERRKWIHCFENVTSIMFLVALSEYDQVLVESDNENRMEESKALFRTIITYPWFQNSSVILFLNKKDLLEEKIMYSHLVDYFPEYDGPQRDAQAAREFILKMFVDLNPDSDKIIYSHFTCATDTENIRFVFAAVKDTILQLNLKEYNLV
modifications: thiol-reactive probe CPM, ~1:1 probe:protein (in the binding titrations)
notes: G protein alpha subunit q (Gαq), rat; the nucleotide state is told by the assay; The sentence of the methods leaves open whether Gαq carried a His tag; also called CPM-Gαq(GTPγS); Gαq-GTPγS; source: Sf9 cells, purified

Test [1] addresses Gαq (UniProt P21279). The following applies: cited from earlier work.
Test [2] concerns the target B3. Put plainly: other fluorescence titration; 2 nM CPM-Gαq activated with GTPγS on large unilamellar vesicles of POPC:POPS:POPE (1:1:1); PLCβ1 added; without and with excess TRAX (300 nM in the text, 200 nM in the legend). The following applies: both partners purified.
The target of test [3] is B1. Put plainly: other fluorescence titration; 2 nM CPM-labelled PLCβ1 (full length or ΔC) in solution, unlabelled TRAX added stepwise; increase of CPM intensity (excitation 380 nm, emission 420-560 nm) fitted to a bimolecular dissociation constant; apparent. The following applies: both partners purified.
For test [4], the target named is B1. Put plainly: other fluorescence titration; 2 nM CPM-Gαq activated with GTPγS on large unilamellar vesicles of POPC:POPS:POPE (1:1:1); PLCβ1 added; without and with excess TRAX (300 nM in the text, 200 nM in the legend). The conditions noted are these: both partners purified.

As for PLCβ1 (from UniProt Q9NQ66), the Kd with Gαq [1] was 0.67 nM.

As for B1, in the test with Gαq [2], the “fold reduction of binding affinity in the presence of excess TRAX” value was 3 fold.

With B2, in test [3], the Kd worked out at 8 nM.

Take B3: in test [4], the binding result is on record as “binds”.
